For this test, the target named is F-actin (polymerized rabbit muscle G-actin) (rabbit, UniProt P68135 1-377). The test can be described thus: co-sedimentation.

B1: bovine GRK5-Flag (enzyme)
chain: MELENIVANTVLLKAREGGGGKRKGKSKKWKEILKFPHINQCEDLRRTIDRDYCSLCDKQPVGRLLFRQFCETRPGLESYIQFLDSVAEYEVTPDEKLGEKGKEIMTKYLTPKSPVFITQVGRDLVSQTEEKLLQKPCKELFSACVQSVHDYLRGEPFHEYLDSMYFDRFLQWKWLERQPVTKNTFRQYRVLGKGGFGEVCACQVRATGKMYACKRLEKKRIKKRKGESMALNEKQILEKVNSRFVVNLAYAYETKDALCLVLTIMNGGDLKFHIYNMGNPGFEEERALFYAAEILCGLEDLHHENIVYRDLKPENILLDDYGHIRISDLGLAVKIPEGDLIRGRVGTVGYMAPEVLNNQRYGLSPDYWGLGCLIYEMIEGQSPFRGRKEKVKREEVDRRVLETEEVYSHKFSEEAKSICKMLLTKDAKQRLGCQEEGAAEVKRHPFFRNMNFKRLEAGMLDPPFVPDPRAVYCKDVLDIEQFSTVKGVNLDHTDDDFYSKFSTGSVPIPWQSEMIETECFKELNVFGPHGTLSPDLNRSHPPEPPKKGLLQRLFKRQHQNNSKSSPNSKTSFNHHINSNHVSSNSTGSS
The term Kd denotes a measure of binding affinity in units of concentration. Read a high Kd as weaker binding. The molecule B1 returned a Kd of 0.809 ± 0.245 µM.
